Measurements reported in paper PMC4539990.

Target: purified FLAG-cortactin (rat) (UniProt Q66HL2)
Assay: pull-down

Sequence of UniProt Q66HL2 (Q66HL2 whole entry): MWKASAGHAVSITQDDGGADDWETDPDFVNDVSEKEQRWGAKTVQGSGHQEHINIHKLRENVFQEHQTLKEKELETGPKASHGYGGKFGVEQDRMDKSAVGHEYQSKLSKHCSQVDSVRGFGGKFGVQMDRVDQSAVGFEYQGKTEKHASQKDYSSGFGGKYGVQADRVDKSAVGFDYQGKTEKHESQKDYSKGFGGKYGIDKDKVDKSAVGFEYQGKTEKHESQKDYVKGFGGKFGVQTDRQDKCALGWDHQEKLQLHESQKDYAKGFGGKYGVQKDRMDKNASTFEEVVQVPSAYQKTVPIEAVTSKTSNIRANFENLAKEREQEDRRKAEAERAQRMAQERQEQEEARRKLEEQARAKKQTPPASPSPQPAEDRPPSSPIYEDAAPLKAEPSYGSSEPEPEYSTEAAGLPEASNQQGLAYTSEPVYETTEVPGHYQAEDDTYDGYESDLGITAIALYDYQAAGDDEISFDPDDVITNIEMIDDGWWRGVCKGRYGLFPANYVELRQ

Which Kd does the source give for “purified shootin1 wild type (natural protein)” here?
Its Kd is 25 nM.
